Source: US20110237462A1 (FUJIFILM, published 2011)

Biological target: T1, MBP-VH(BGP) labeled with ALEXA FLUOR 555 together with MBP-VL(BGP) labeled with ALEXA FLUOR 647 (labeled with ALEXA FLUOR 647 (labeled residues not stated); labeled with ALEXA FLUOR 555 (labeled residues not stated))
T1 construct: Two separate MBP-fused antibody fragments, covalently immobilized on a carboxymethyl dextran glass substrate; The MBP leader is part of the printed entries; also called fusion protein of anti-osteocalcin (BGP) VH-region polypeptide with MBP; fusion protein of anti-BGP VL-region polypeptide (antibody KTM219) with MBP
Experiment: FRET on immobilization substrates I and J

B1: C-terminal heptapeptide fragment of BGP (RRFYGPY) (peptide)
peptide: RRFYGPY
notes: also called BGP heptapeptide; BGP heptapeptide (RRFYGPY)
binding result: binds
